Seven molecules from patent US20190375831A1 (US Dept. of Health and Human Services, published 2019) can be followed below.

For assay [1], the target named is T1, PfCSP on P. falciparum sporozoites (PfSPZ) (Plasmodium falciparum, UniProt P19597 19-374). The assay is described as follows: immunofluorescence assay on PfSPZ.
Assay [2] has as its target T2, recombinant PfCSP (rPfCSP, residues 21-375) (Plasmodium falciparum, UniProt P19597 21-375).
T2 construct: also called recombinant wild type PfCSP; not shown: C-terminal Avi-tag, HRV3C-processing tag and His-purification tag
The assay is described as follows: ITC, CIS43 Fab injected into rPfCSP, two sets of sites, second set. On the technique in general: In ITC the heat of successive injections is recorded.

In assay [3] the target is T2, recombinant PfCSP (rPfCSP, residues …). Put plainly: ITC, CIS43 Fab injected into rPfCSP, two sets of sites, first set.
For assay [4] the target is unchanged. Put plainly: ELISA on coated rPfCSP, OD405nm. In general terms: In an ELISA, binding on a coated surface is turned into a signal by an enzyme label.
The target of assay [5] is T1, PfCSP on P. falciparum sporozoites …. The assay is described as follows: ELISA on coated PfSPZ, OD405nm.
In assay [6] the target is T2, recombinant PfCSP (rPfCSP, residues …). Put plainly: biolayer interferometry, biotinylated CSP on the sensor, whole IgG in solution; apparent KD. (In general: In BLI a coated tip is dipped into the sample, and binding shifts an interference pattern.)
Assay [7] has the same target. The assay is described as follows: ITC, one binding event.
The target is the same in assay [8]. Put plainly: ITC, mAb injected into rPfCSP, one set of sites (Kd = 51 nM).
The target is the same in assay [9]. Put plainly: ITC, mAb injected into rPfCSP, one set of sites (Kd = […] nM).
For assay [10] the target is unchanged. The assay is described as follows: ITC, mAb injected into rPfCSP, one set of sites (Kd = […] nM).
Assay [11] shares this target. Put plainly: ITC, first binding event.
Assay [12] shares this target. Put plainly: ITC, second binding event.

As usually defined, the EC50 (read off the curve) is the concentration giving half of the maximal effect.

T1 sequence (P19597 19-374 limits assumed): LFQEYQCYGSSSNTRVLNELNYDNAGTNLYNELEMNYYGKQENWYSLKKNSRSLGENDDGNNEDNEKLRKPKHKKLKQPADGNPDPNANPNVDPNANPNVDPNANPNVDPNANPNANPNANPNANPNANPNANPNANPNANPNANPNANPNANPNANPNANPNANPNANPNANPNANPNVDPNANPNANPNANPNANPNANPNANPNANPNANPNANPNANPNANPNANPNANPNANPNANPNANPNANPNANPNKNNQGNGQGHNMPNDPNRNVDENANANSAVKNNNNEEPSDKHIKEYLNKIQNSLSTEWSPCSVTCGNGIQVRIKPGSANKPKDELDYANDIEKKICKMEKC
T2 sequence (P19597 21-375): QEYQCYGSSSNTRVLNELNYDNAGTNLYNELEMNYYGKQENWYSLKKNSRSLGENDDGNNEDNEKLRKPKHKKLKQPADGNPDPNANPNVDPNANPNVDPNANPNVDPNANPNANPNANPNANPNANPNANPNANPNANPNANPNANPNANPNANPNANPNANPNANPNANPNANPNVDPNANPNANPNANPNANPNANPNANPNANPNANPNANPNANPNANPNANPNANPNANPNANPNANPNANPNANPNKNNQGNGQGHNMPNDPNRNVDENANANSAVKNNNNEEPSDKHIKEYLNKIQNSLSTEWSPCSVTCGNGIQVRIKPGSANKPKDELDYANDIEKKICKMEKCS

B1: CIS04 (antibody, V domains shown)
VH: QVQLVQSGAEVKKPGASVKVSCKASGYTFTSYAIHWVRQAPGQRLEWMGWIKAGNGDTRYSQKFQGRVTITRDTSATTAYMELSSLRSEDTAVYYCGLLTVLTPDDAFDIWGQGTMVTVSS
VL: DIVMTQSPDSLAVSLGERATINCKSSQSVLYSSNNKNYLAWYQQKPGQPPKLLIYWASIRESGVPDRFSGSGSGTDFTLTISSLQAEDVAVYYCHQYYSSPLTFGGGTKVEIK
notes: also called mAb CIS04
For B1, the binding result in [1] is “binds”.

B2: CIS43 Fab (Fab, V domains shown)
VH: QVQLVQSGAEVKKPGASVKVSCKASGYTFTSYAIHWVRQAPGQRLEWMGWIKAGNGNTRYSQKFQDRVTITRDTSTTTAYMELSSLRSEDTAVYYCALLTVLTPDDAFDIWGQGTMVTVSS
VL: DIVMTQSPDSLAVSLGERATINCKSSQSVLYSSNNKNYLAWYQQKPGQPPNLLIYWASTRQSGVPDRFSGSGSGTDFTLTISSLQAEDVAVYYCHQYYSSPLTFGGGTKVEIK
Turning to B2, in [2], the “-TΔS2” value is -4.3 kcal/mol, the Kd stood at 250 nM, the ΔG2 is -9 kcal/mol and the ΔH2 was -4.7 kcal/mol. Also, in assay [3], the “-TΔS1” value is 12 kcal/mol, the Kd was found to be 16 nM, the ΔG1 is -10.6 kcal/mol and the ΔH1 is -22.6 kcal/mol.

B3: CIS06 (antibody, V domains shown)
VH: QVQLVQSGPEVKKPGTSVKVSCKASGFTFSSSAVQWVRQARGQRLEWIGWIVVGSGKTKYAQNFQQRVTITRDMSTSTAYLELSTLRSEDTAVYYCAAVVNWNDESGFDPWGQGTLVTVSS
VL: DIQMTQSPSSLSAFVGDRVTITCRASQSIGTYLNWYQQKVGQAPKLLIYTASSLRSGVPSRFSGSGSGTDFTLTITSLQPEDFATYYCQQSYSTYTFGQGTKLEIK
notes: also called mAb CIS06
B3: the 50% effective concentration (EC50 (read off the curve)) in [4] was about 100 ng/mL.

B4: mAb CIS42 (antibody, V domains shown)
VH: QVQLVQSGSELKKPGASVKVSCKTSGYTFTTYAMNWVRQAPGQGLEWMGWINTNTGNPTYAPGFTGRFVFSFDTSVSTAYLQISSLKAEDTAVYYCARVYSYGVPFDYWGQGTLVTVSS
VL: QSVLTQPASVSGSPGQSITISCTATSSNVGSFNLVSWYQHHPGKAPKLIIHEVSKRPSGASNRFSGSKSGNTASLTISGLQAEDEADYYCCSYVGSDTWVFGGGTKLTVL
For B4, the binding result in assay [5] is “binds”. The “EC50 (read off the curve)” value in assay [4] was about 5 ng/mL. The Kd in assay [6] was determined as 0.76 nM. The Kd in assay [7] was 51 nM. In assay [8], the “-TΔS” value turned out to be 12.8 kcal/mol, the ΔG is -9.9 kcal/mol and the ΔH is -22.7 kcal/mol.

B5: mAb10 (antibody, human IgG1, kappa, V domains shown)
VH: EVQLVESGGGVVQPGRSLRLSCEASGFTFSTYGMHWVRQAPGKGLEWVAIIWHDGSKKYHADSVRGRFTISRDNSKNTLYLQMNSLRAEDTAVYFCARVGNYGGDWGAGFDYWGQGTLVTVSS
VL: DIQMTQSPSFLSASVGDRVTIACRASQSISSWLAWYQQKPGKAPKLLIYHASSLESGVPSRFSGSASGTEFALTISSLQPDDFATYYCQQYSSYWTFGQGTKVEIKR
As for B5, in [9], the “-TΔS” value was 22.7 kcal/mol and the ΔH is -33 kcal/mol.

B6: mAb CIS23 (antibody, V domains shown)
VH: EVQLVESGGGVVQPGRSLRLSCAASGFTFSSYGMYWVRQAPGKGLEWVALISHDGSNKFYADSVKGRFTISRDNSKNTLYLQMNSLRAEDTAVYYCAKDLGYSSSWGYFDYWGQGTLVTVSS
VL: EIVLTQSPATLSLSPGERATLSCRASQSVSSYLAWYQQKPGQAPRLLIYDASNRATGIPARFSGSGSGTDFTLTISSLEPEDFAVYYCQQRSNWYTFGQGTKLEIK
As for B6, in assay [5], the binding result was “binds”. Further, in [10], the “-TΔS” value was 13.1 kcal/mol, the ΔG was -10.4 kcal/mol and the ΔH was -23.5 kcal/mol.

B7: mAb CIS34 (antibody, human IgG1, kappa, V domains shown)
VH: QVQLVESGGGVVQPGRSLRLSCAASGFTFSSYGIHWVRQAPGKGLEWVAVIWYDGSKKYYGDSVKGRFTISRDNSKNTLYLQMNSLRVEDTAVYYCARAVIAATGTRGYWFDPWGQGTLVTVSS
VL: DIIMTQSPVSLSASVGDRVTITCRASQSISSHLNWYQQKPGKAPKLLIYAASSLQSGVPSRFSGSGSGTDFTLTISSLQPEDFATYSCQQTYRGFTFAPGTKVDIKR
For the molecule B7, in assay [5], the binding result is listed as “binds”. Besides, the Kd in assay [11] is 31 nM; in assay [6], 1.5 nM; in assay [12] it was 80 nM. The half-maximal effective concentration (EC50 (read off the curve)) in [4] was about 3 ng/mL.
